# Data from publication PMC9482650, “Quantitative fragmentomics allow affinity mapping of interactomes” (Nature Communications, 2022).
# T1: GRIP1_2, Q9Y3R0
# T1 sequence (Q9Y3R0 145-248, limits assumed, looked up): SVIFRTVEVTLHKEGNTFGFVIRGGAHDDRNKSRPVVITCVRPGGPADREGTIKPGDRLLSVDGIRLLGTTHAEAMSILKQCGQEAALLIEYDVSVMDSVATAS
# T2: NHERF3_3, Q5T2W1
# T2 sequence (Q5T2W1 238-333, limits assumed, looked up): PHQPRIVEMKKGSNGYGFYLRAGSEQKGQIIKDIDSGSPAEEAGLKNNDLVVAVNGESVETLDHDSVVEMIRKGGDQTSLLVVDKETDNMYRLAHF
# T3: CARD11, Q9BXL7
# T3 sequence (Q9BXL7 662-765, limits assumed, looked up): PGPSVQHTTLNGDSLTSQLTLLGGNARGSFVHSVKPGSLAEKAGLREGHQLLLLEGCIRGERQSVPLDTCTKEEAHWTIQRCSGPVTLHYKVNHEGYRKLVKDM
# T4: PDZD2_2, O15018
# T4 sequence (O15018 329-429, limits assumed, looked up): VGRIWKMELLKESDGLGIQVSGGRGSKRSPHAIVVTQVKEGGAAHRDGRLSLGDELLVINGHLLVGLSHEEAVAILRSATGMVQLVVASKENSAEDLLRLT
# T5: SNTA1, Q13424
# T5 sequence (Q13424 82-180, limits assumed, looked up): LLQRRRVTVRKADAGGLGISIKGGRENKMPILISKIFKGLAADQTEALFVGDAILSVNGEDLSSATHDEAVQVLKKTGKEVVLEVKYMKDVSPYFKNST
# T6: NHERF3_4, Q5T2W1
# T6 sequence (Q5T2W1 373-468, limits assumed, looked up): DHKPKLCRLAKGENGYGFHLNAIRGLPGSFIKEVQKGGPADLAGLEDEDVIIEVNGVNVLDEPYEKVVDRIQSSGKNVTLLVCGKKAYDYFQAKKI
# T7: HTRA4, P83105
# T7 sequence (P83105 378-476, limits assumed, looked up): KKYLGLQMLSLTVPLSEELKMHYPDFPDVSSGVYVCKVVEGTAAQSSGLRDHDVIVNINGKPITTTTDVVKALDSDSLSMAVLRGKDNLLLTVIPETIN
# T8: SIPA1L2, Q9P2F8
# T8 sequence (Q9P2F8 945-1036, limits assumed, looked up): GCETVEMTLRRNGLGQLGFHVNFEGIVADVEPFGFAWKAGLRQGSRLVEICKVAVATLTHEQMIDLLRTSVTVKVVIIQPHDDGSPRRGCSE
# T9: TJP3_3, O95049
# T9 sequence (O95049 375-456, limits assumed, looked up): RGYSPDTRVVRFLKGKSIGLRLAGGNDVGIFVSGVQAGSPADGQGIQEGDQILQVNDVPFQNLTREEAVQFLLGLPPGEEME
# T10: SNTG1, Q9NSN8
# T10 sequence (Q9NSN8 52-150, limits assumed, looked up): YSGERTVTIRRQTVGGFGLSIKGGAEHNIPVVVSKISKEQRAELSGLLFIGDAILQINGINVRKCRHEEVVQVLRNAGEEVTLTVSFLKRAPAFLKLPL
# Target: MAST1, Q9Y2H9
# Sequence (Q9Y2H9 962-1065): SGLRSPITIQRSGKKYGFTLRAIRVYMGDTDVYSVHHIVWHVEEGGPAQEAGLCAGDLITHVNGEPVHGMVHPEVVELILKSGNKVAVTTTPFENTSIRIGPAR
# Assay: holdup assay
# Parameters: key: below the threshold = too weak to quantify, mostly under pKd 3.1 to 4
# Conditions: plain residues with an end cap or a label only (N-terminal biotin on a linker: ado-ado)
row,Binder,pKd
1,"RDYTQSSSSL [GRM5, P41594]",4.67

# Target: SCRIB_2, Q14160
# Sequence (Q14160 857-960): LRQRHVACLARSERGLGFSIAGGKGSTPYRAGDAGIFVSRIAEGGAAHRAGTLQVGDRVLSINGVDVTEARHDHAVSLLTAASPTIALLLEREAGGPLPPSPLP
# Assay: holdup assay
# Parameters: key: below the threshold = too weak to quantify, mostly under pKd 3.1 to 4
# Conditions: plain residues with an end cap or a label only (N-terminal biotin on a linker: ado-ado)
row,Binder,pKd
1,"RDYTQSSSSL [GRM5, P41594]",below the threshold

# Target: GRIP2_3, Q9C0E4
# Sequence (Q9C0E4 238-339): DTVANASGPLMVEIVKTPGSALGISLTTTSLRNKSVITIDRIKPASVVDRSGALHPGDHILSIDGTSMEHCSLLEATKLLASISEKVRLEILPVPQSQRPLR
# Assay: holdup assay
# Parameters: key: below the threshold = too weak to quantify, mostly under pKd 3.1 to 4
# Conditions: plain residues with an end cap or a label only (N-terminal biotin on a linker: ado-ado)
row,Binder,pKd
1,"RDYTQSSSSL [GRM5, P41594]",below the threshold

# Target: GOPC, Q9HD26
# Assay: holdup assay
# Parameters: key: below the threshold = too weak to quantify, mostly under pKd 3.1 to 4
# Conditions: plain residues with an end cap or a label only (N-terminal biotin on a linker: ado-ado)
row,Binder,pKd
1,"RDYTQSSSSL [GRM5, P41594]",3.55

# Target: DLG2_2, Q15700
# Sequence (Q15700 189-283): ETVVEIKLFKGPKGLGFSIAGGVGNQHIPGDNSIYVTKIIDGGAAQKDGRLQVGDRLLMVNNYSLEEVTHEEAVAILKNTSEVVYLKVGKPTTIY
# Assay: holdup assay
# Parameters: key: below the threshold = too weak to quantify, mostly under pKd 3.1 to 4
# Conditions: plain residues with an end cap or a label only (N-terminal biotin on a linker: ado-ado)
row,Binder,pKd
1,"RDYTQSSSSL [GRM5, P41594]",below the threshold

# Target: LDB3, O75112
# Sequence (O75112 1-94): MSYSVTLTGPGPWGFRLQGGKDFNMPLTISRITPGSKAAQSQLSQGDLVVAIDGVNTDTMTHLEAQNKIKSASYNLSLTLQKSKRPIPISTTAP
# Assay: holdup assay
# Parameters: key: below the threshold = too weak to quantify, mostly under pKd 3.1 to 4
# Conditions: plain residues with an end cap or a label only (N-terminal biotin on a linker: ado-ado)
row,Binder,pKd
1,"RDYTQSSSSL [GRM5, P41594]",below the threshold

# Target: T1, GRIP1_2, Q9Y3R0
# Assay: holdup assay
# Parameters: key: below the threshold = too weak to quantify, mostly under pKd 3.1 to 4
# Conditions: plain residues with an end cap or a label only (N-terminal biotin on a linker: ado-ado)
row,Binder,pKd
1,"RDYTQSSSSL [GRM5, P41594]",below the threshold

# Target: PICK1, Q9NRD5
# Sequence (Q9NRD5 17-115): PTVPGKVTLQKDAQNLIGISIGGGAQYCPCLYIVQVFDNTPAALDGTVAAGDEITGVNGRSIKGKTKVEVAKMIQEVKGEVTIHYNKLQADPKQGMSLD
# Assay: holdup assay
# Parameters: key: below the threshold = too weak to quantify, mostly under pKd 3.1 to 4
# Conditions: plain residues with an end cap or a label only (N-terminal biotin on a linker: ado-ado)
row,Binder,pKd
1,"RDYTQSSSSL [GRM5, P41594]",4.11

# Target: T2, NHERF3_3, Q5T2W1
# Assay: holdup assay
# Parameters: key: below the threshold = too weak to quantify, mostly under pKd 3.1 to 4
# Conditions: plain residues with an end cap or a label only (N-terminal biotin on a linker: ado-ado)
row,Binder,pKd
1,"RDYTQSSSSL [GRM5, P41594]",below the threshold

# Target: PTPN3, P26045
# Sequence (P26045 505-587): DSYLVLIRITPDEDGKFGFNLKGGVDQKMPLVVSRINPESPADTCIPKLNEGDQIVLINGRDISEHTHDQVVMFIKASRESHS
# Assay: holdup assay
# Parameters: key: below the threshold = too weak to quantify, mostly under pKd 3.1 to 4
# Conditions: plain residues with an end cap or a label only (N-terminal biotin on a linker: ado-ado)
row,Binder,pKd
1,"RDYTQSSSSL [GRM5, P41594]",4.27

# Target: NHERF4_2, Q86UT5
# Sequence (Q86UT5 220-308): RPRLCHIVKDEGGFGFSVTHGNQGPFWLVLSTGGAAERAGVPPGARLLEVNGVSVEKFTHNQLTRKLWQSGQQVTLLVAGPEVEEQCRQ
# Assay: holdup assay
# Parameters: key: below the threshold = too weak to quantify, mostly under pKd 3.1 to 4
# Conditions: plain residues with an end cap or a label only (N-terminal biotin on a linker: ado-ado)
row,Binder,pKd
1,"RDYTQSSSSL [GRM5, P41594]",below the threshold

# Target: T3, CARD11, Q9BXL7
# Assay: holdup assay
# Parameters: key: below the threshold = too weak to quantify, mostly under pKd 3.1 to 4
# Conditions: plain residues with an end cap or a label only (N-terminal biotin on a linker: ado-ado)
row,Binder,pKd
1,"RDYTQSSSSL [GRM5, P41594]",below the threshold

# Target: T4, PDZD2_2, O15018
# Assay: holdup assay
# Parameters: key: below the threshold = too weak to quantify, mostly under pKd 3.1 to 4
# Conditions: plain residues with an end cap or a label only (N-terminal biotin on a linker: ado-ado)
row,Binder,pKd
1,"RDYTQSSSSL [GRM5, P41594]",3.83

# Target: T5, SNTA1, Q13424
# Assay: holdup assay
# Parameters: key: below the threshold = too weak to quantify, mostly under pKd 3.1 to 4
# Conditions: plain residues with an end cap or a label only (N-terminal biotin on a linker: ado-ado)
row,Binder,pKd
1,"RDYTQSSSSL [GRM5, P41594]",below the threshold

# Target: FRMPD2_1, Q68DX3
# Sequence (Q68DX3 770-861): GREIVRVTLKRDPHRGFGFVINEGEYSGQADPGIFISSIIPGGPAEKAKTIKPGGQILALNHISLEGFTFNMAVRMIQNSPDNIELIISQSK
# Assay: holdup assay
# Parameters: key: below the threshold = too weak to quantify, mostly under pKd 3.1 to 4
# Conditions: plain residues with an end cap or a label only (N-terminal biotin on a linker: ado-ado)
row,Binder,pKd
1,"RDYTQSSSSL [GRM5, P41594]",below the threshold

# Target: Inadl_6, Q8NI35
# Sequence (Q8NI35 1058-1167): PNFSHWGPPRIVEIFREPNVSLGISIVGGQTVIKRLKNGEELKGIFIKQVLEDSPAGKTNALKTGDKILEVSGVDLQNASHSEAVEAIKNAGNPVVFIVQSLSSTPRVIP
# Assay: holdup assay
# Parameters: key: below the threshold = too weak to quantify, mostly under pKd 3.1 to 4
# Conditions: plain residues with an end cap or a label only (N-terminal biotin on a linker: ado-ado)
row,Binder,pKd
1,"RDYTQSSSSL [GRM5, P41594]",below the threshold

# Target: MAGI2_4, Q86UL8
# Sequence (Q86UL8 772-865): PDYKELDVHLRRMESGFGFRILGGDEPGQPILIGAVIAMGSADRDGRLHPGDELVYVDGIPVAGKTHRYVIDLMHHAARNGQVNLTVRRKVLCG
# Assay: holdup assay
# Parameters: key: below the threshold = too weak to quantify, mostly under pKd 3.1 to 4
# Conditions: plain residues with an end cap or a label only (N-terminal biotin on a linker: ado-ado)
row,Binder,pKd
1,"RDYTQSSSSL [GRM5, P41594]",below the threshold

# Target: MAGI2_3, Q86UL8
# Sequence (Q86UL8 600-682): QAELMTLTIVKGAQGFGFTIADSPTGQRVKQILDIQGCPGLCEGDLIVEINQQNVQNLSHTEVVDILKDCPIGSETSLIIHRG
# Assay: holdup assay
# Parameters: key: below the threshold = too weak to quantify, mostly under pKd 3.1 to 4
# Conditions: plain residues with an end cap or a label only (N-terminal biotin on a linker: ado-ado)
row,Binder,pKd
1,"RDYTQSSSSL [GRM5, P41594]",below the threshold

# Target: T6, NHERF3_4, Q5T2W1
# Assay: holdup assay
# Parameters: key: below the threshold = too weak to quantify, mostly under pKd 3.1 to 4
# Conditions: plain residues with an end cap or a label only (N-terminal biotin on a linker: ado-ado)
row,Binder,pKd
1,"RDYTQSSSSL [GRM5, P41594]",3.64

# Target: MAGI2_5, Q86UL8
# Sequence (Q86UL8 915-1017): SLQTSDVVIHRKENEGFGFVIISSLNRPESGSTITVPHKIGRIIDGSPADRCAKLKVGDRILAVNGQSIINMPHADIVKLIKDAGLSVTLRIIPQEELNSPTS
# Assay: holdup assay
# Parameters: key: below the threshold = too weak to quantify, mostly under pKd 3.1 to 4
# Conditions: plain residues with an end cap or a label only (N-terminal biotin on a linker: ado-ado)
row,Binder,pKd
1,"RDYTQSSSSL [GRM5, P41594]",below the threshold

# Target: HTRA1, Q92743
# Sequence (Q92743 360-477): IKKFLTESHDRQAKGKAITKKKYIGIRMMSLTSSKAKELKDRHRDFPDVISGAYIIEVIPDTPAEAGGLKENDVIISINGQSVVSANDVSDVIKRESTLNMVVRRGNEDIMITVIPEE
# Assay: holdup assay
# Parameters: key: below the threshold = too weak to quantify, mostly under pKd 3.1 to 4
# Conditions: plain residues with an end cap or a label only (N-terminal biotin on a linker: ado-ado)
row,Binder,pKd
1,"RDYTQSSSSL [GRM5, P41594]",below the threshold

# Target: Inadl_5, Q8NI35
# Sequence (Q8NI35 673-780): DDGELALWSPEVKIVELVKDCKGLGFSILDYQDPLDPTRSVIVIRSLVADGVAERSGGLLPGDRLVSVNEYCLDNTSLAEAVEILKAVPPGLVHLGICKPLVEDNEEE
# Assay: holdup assay
# Parameters: key: below the threshold = too weak to quantify, mostly under pKd 3.1 to 4
# Conditions: plain residues with an end cap or a label only (N-terminal biotin on a linker: ado-ado)
row,Binder,pKd
1,"RDYTQSSSSL [GRM5, P41594]",below the threshold

# Target: LNX1_3, Q8TBB1
# Sequence (Q8TBB1 500-596): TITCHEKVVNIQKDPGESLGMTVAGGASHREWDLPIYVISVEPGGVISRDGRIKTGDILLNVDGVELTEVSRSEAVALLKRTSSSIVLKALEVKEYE
# Assay: holdup assay
# Parameters: key: below the threshold = too weak to quantify, mostly under pKd 3.1 to 4
# Conditions: plain residues with an end cap or a label only (N-terminal biotin on a linker: ado-ado)
row,Binder,pKd
1,"RDYTQSSSSL [GRM5, P41594]",below the threshold

# Target: T7, HTRA4, P83105
# Assay: holdup assay
# Parameters: key: below the threshold = too weak to quantify, mostly under pKd 3.1 to 4
# Conditions: plain residues with an end cap or a label only (N-terminal biotin on a linker: ado-ado)
row,Binder,pKd
1,"RDYTQSSSSL [GRM5, P41594]",3.85

# Target: GRIP2_4, Q9C0E4
# Sequence (Q9C0E4 446-548): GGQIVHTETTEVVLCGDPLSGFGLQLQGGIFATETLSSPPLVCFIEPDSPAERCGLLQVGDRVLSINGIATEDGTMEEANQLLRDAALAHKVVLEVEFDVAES
# Assay: holdup assay
# Parameters: key: below the threshold = too weak to quantify, mostly under pKd 3.1 to 4
# Conditions: plain residues with an end cap or a label only (N-terminal biotin on a linker: ado-ado)
row,Binder,pKd
1,"RDYTQSSSSL [GRM5, P41594]",below the threshold

# Target: T8, SIPA1L2, Q9P2F8
# Assay: holdup assay
# Parameters: key: below the threshold = too weak to quantify, mostly under pKd 3.1 to 4
# Conditions: plain residues with an end cap or a label only (N-terminal biotin on a linker: ado-ado)
row,Binder,pKd
1,"RDYTQSSSSL [GRM5, P41594]",below the threshold

# Target: T9, TJP3_3, O95049
# Assay: holdup assay
# Parameters: key: below the threshold = too weak to quantify, mostly under pKd 3.1 to 4
# Conditions: plain residues with an end cap or a label only (N-terminal biotin on a linker: ado-ado)
row,Binder,pKd
1,"RDYTQSSSSL [GRM5, P41594]",below the threshold

# Target: T10, SNTG1, Q9NSN8
# Assay: holdup assay
# Parameters: key: below the threshold = too weak to quantify, mostly under pKd 3.1 to 4
# Conditions: plain residues with an end cap or a label only (N-terminal biotin on a linker: ado-ado)
row,Binder,pKd
1,"RDYTQSSSSL [GRM5, P41594]",below the threshold

# Target: CASK, O14936
# Sequence (O14936 487-570): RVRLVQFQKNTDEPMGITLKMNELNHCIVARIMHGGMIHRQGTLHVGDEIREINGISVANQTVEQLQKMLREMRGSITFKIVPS
# Assay: holdup assay
# Parameters: key: below the threshold = too weak to quantify, mostly under pKd 3.1 to 4
# Conditions: plain residues with an end cap or a label only (N-terminal biotin on a linker: ado-ado)
row,Binder,pKd
1,"RDYTQSSSSL [GRM5, P41594]",below the threshold
